Source: the FLAb antibody collection (doi:10.7554/elife.23156)

B1: scFv; the commonest letter at each place (parent)
chain 1: EVKLDETGGGLVQPGRPMKLSCVASGFTFSDYWMNWVRQSPEKGLEWVAQIRNKPYNYETYYSDSVKGRFTISRDDSKSSVYLQMNNLRVEDMGIYYCTGSYYGMDYWGQGTSVTVS
chain 2: DVVMTQTPLSLPVSLGDQASISCRSSQSLVHSNGNTYLRWYLQKPGQSPKVLIYKVSNRFSGVPDRFSGSGSGTDFTLKISRVEAEDLGVYFCSQSTHVPWTFGGGTKLEIK

Columns and labels:
fluorescein = variants of: B1; assay: Kd (Tite-Seq); settings: with fluorescein; format: scFv 4-4-20, heavy + light
[1] = variants of: B1; assay: yeast surface expression (ratio to wild type); higher = more expressed; settings: format: scFv 4-4-20, heavy + light

Variant	Kd (fluorescein) [µM]	yeast surface expression [1]
chain 1 G100R W108N	≥ 10	0.348
chain 1 G104R G109C	≥ 10	0.5
chain 1 Y102T Y103C	0.0245	0.784
chain 1 F29Q	0.0119	0.989
chain 1 F29I	0.00325	1.01
chain 1 F29S	0.0265	0.933
chain 1 W33E V37Y	≥ 10	1
chain 1 W36F V37N	0.00746	0.509
chain 1 W108M G109E	0.0944	0.408
chain 1 S101W G104Y	≥ 10	0.203
chain 1 Y103L W108D	≥ 10	0.501
chain 1 M105N G109E	≥ 10	0.266
chain 1 G100N G109H	≥ 10	0.236
chain 1 F29K Y32N	≥ 10	0.609
chain 1 Y32R M34S	≥ 10	0.191
chain 1 F29M D31N Y32A	0.00606	1.2
chain 1 T28C Y32W	≥ 10	0.802
chain 1 G100I W108K	≥ 10	0.698
chain 1 G100L G109V	≥ 10	0.253
chain 1 Y102S Y103S	0.021	1.1
chain 1 D31A V37E	≥ 10	2.19
chain 1 Y102C W108I	≤ 0.000316	0.7
chain 1 Y102K G109Y	≥ 10	0.342

Variant	Kd (fluorescein) [µM]	yeast surface expression [1]
chain 1 Y103G M105S	≥ 10	0.983
chain 1 G109W	≥ 10	0.217
chain 1 W33L	≥ 10	0.824
chain 1 W33S	≥ 10	0.845
chain 1 W33P	≥ 10	0.803
chain 1 W33V	≥ 10	0.944
chain 1 G100W Y107Q	≥ 10	0.323
chain 1 G100W Y107R	≥ 10	0.229
chain 1 F29K D31K W33G	≥ 10	0.92
chain 1 G100Y Y107K	≥ 10	0.555
chain 1 F29I W33A W36Y	≥ 10	0.454
chain 1 Y103D W108H	3.74	0.708
chain 1 W36A	≥ 10	0.44
chain 1 D106E W108I	0.228	0.866
chain 1 F29Y D31E W33G	≥ 10	1.63
chain 1 M105E Y107C	≥ 10	0.847
chain 1 G100R G104V M105S	≥ 10	0.211
chain 1 F29L M34C	≥ 10	0.745
chain 1 W33L V37D	1.47	0.591
chain 1 Y103Q M105T	≥ 10	0.874
chain 1 D31N N35T	≥ 10	0.86
chain 1 G100S	0.0038	0.938
chain 1 G100V	≥ 10	0.97

Variant	Kd (fluorescein) [µM]	yeast surface expression [1]
chain 1 D31T	0.00371	0.766
chain 1 D31L	0.00638	0.509
chain 1 W33C M34K	≥ 10	0.774
chain 1 M34N W36Y	≥ 10	0.542
chain 1 T28W N35H	≥ 10	0.727
chain 1 W108N G109P	≥ 10	0.396
chain 1 Y102Q Y103E	≥ 10	0.977
chain 1 T28H W36L	≥ 10	0.454
chain 1 M34P V37Q	2.23	2.03
chain 1 S101C G109D	≥ 10	0.328
chain 1 F29S W33C	≥ 10	0.865
chain 1 F29L S30T V37W	≥ 10	0.536
chain 1 S101Q Y102R	≥ 10	1.07
chain 1 D106T G109R	≥ 10	0.26
chain 1 Y107S G109C	≥ 10	0.174
chain 1 V37P	≥ 10	0.676
chain 1 N35L W36I	≥ 10	0.256
chain 1 Y102D W108M	0.000604	0.926
chain 1 F29I S30E	0.00343	0.929
chain 1 S101D Y103K	≥ 10	0.764
chain 1 S30A M34Y	0.00361	0.977
chain 1 S101C Y103L	≥ 10	0.522
chain 1 W33T M34W	≥ 10	0.967

Variant	Kd (fluorescein) [µM]	yeast surface expression [1]
chain 1 G100V S101I	≥ 10	0.653
chain 1 D106L W108C	≥ 10	0.234
chain 1 S30Y V37H	≥ 10	0.57
chain 1 W33F N35T	≥ 10	0.824
chain 1 T28N V37A	0.0729	0.941
chain 1 Y32A M34V	0.0434	0.941
chain 1 G104T	≥ 10	0.599
chain 1 Y103T W108S	≥ 10	0.244
chain 1 S101W G109V	≥ 10	0.224
chain 1 D106Q	5.66	0.846
chain 1 D106V	≥ 10	0.734
chain 1 D106L	≥ 10	0.466
chain 1 D106M	≥ 10	0.574
chain 1 D106P	≥ 10	0.635
chain 1 T28F N35C	≥ 10	0.644
chain 1 Y103H Y107I	≥ 10	1.25
chain 1 G100F M105D	≥ 10	0.573
chain 1 G100F M105K	≥ 10	1.1
chain 1 Y102V G104K	≥ 10	0.494
chain 1 G100N G104F	≥ 10	0.321
chain 1 T28A D31M	0.00239	0.955
chain 1 Y32Q W36N V37K	≥ 10	0.902
chain 1 M34H	≥ 10	0.737

Variant	Kd (fluorescein) [µM]	yeast surface expression [1]
chain 1 M34N	2.28	0.695
chain 1 G104K D106H	≥ 10	0.594
chain 1 Y102F M105R	0.0146	1.2
chain 1 W33G V37L	≥ 10	0.49
chain 1 G100T M105W	≥ 10	0.733
chain 1 W33E M34W	≥ 10	0.966
chain 1 F29Q S30D Y32A	≥ 10	0.934
chain 1 Y107Q W108Q	≥ 10	0.385
chain 1 W33S W36I	≥ 10	0.619
chain 1 Y102G G104F	≥ 10	0.545
chain 1 G100V W108V	0.000846	0.892
chain 1 Y32I N35P	≥ 10	0.0981
chain 1 D106L G109H	≥ 10	0.0932
chain 1 G100P D106A	≥ 10	0.627
chain 1 G100S Y107A	≥ 10	0.942
chain 1 G100V G104F	≥ 10	0.472
chain 1 G100V G104D	≥ 10	0.777
chain 1 D31Q V37P	0.00827	0.0981
chain 1 Y103Q	0.0199	1.33
chain 1 T28I W33K	≥ 10	0.617
chain 1 G100V Y103R G104L	≥ 10	0.88
chain 1 Y103A W108D	≥ 10	0.576
chain 1 M105I Y107W	0.105	0.669
